Measurements published in article PMC10397247.
Blank lines part the entries; values can stand above or below the binder they belong to.

What was measured:
Experiment in all cases: two-hybrid library CCmax;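 further: natural log of median RNA to DNA barcode read ratio; higher means stronger binding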
[1] = biological target: T1, 4H432-AA; conditions: mean of both orientations
T1 chain: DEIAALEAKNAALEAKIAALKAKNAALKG

[2] = biological target: T2, O3-AA; conditions: mean of both orientations
T2 chain: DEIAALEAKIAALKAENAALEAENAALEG

[3] = biological target: T3, O4-AA; conditions: mean of both orientations
T3 chain: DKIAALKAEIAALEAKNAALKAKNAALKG

[4] = biological target: T4, O7-AA; conditions: mean of both orientations
T4 chain: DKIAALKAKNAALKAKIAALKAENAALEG

[5] = biological target: T5, P6-AA-12HAA-T
T5 chain: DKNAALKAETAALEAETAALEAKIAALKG

[6] = biological target: T6, Core_NNII-es_KKKK; conditions: mean of both orientations
T6 chain: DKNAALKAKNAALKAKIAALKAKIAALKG

[7] = biological target: T7, 4H1446-AA; conditions: mean of both orientations
T7 chain: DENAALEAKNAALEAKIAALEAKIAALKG

[8] = biological target: T8, 4H2898-AA; conditions: mean of both orientations
T8 chain: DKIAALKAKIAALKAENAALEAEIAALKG

[9] = biological target: T9, 4H3020-AA; conditions: mean of both orientations
T9 chain: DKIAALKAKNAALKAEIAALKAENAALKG

[10] = biological target: T10, 4H465-AA; conditions: mean of both orientations
T10 chain: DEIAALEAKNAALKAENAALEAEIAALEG

[11] = biological target: T11, 4H486-AA; conditions: mean of both orientations
T11 chain: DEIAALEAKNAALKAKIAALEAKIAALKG

[12] = biological target: T12, 4H58-AA; conditions: mean of both orientations
T12 chain: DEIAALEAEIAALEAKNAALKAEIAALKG

[13] = biological target: T13, 4H1142-AA
T13 chain: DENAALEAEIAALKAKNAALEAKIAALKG

[14] = biological target: T14, 4H2148-AA; conditions: mean of both orientations
T14 chain: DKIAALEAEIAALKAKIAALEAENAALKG

[15] = biological target: T15, 4H2290-AA; conditions: mean of both orientations
T15 chain: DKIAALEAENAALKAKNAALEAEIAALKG

[16] = biological target: T16, 4H733-AA; conditions: mean of both orientations
T16 chain: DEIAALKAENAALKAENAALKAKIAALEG

[17] = biological target: T17, APC7099-AA; conditions: mean of both orientations
T17 chain: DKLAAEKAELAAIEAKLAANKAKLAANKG

[18] = biological target: T18, APC9319-AA; conditions: mean of both orientations
T18 chain: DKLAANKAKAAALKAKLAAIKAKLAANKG

[19] = biological target: T19, P5-AA-12HGe-H; conditions: mean of both orientations
T19 chain: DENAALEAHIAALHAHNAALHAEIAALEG

[20] = biological target: T20, P5-AA-12HGe-R; conditions: mean of both orientations
T20 chain: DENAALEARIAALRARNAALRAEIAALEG

[21] = biological target: T21, P5-AA-1HAA-N; conditions: mean of both orientations
T21 chain: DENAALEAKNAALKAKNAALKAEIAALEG

[22] = biological target: T22, P5-AA-1HAA-R; conditions: mean of both orientations
T22 chain: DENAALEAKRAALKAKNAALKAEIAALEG

[23] = biological target: T23, P5-AA-1HGe-W; conditions: mean of both orientations
T23 chain: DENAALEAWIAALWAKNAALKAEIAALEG

[24] = biological target: T24, P6-AA-12HGe-W; conditions: mean of both orientations
T24 chain: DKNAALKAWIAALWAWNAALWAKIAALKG

[25] = biological target: T25, P6-AA-1HAA-E; conditions: mean of both orientations
T25 chain: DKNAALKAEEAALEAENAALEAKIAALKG

[26] = biological target: T26, P6-AA-1HAA-H; conditions: mean of both orientations
T26 chain: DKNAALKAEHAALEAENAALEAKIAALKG

[27] = biological target: T27, P6-AA-1HAA-S; conditions: mean of both orientations
T27 chain: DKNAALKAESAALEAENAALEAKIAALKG

[28] = biological target: T28, P6-AA-1HAA-V; conditions: mean of both orientations
T28 chain: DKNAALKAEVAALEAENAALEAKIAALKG

[29] = biological target: T29, P6-AA-1HGe-Q; conditions: mean of both orientations
T29 chain: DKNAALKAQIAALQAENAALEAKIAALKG

[30] = biological target: T30, P6-AA-1HGe-T; conditions: mean of both orientations
T30 chain: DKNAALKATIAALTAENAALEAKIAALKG

[31] = biological target: T31, 4H1109-AA; conditions: mean of both orientations
T31 chain: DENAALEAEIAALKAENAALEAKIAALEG

[32] = biological target: T32, 4H2713-AA; conditions: mean of both orientations
T32 chain: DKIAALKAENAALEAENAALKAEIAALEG

[33] = biological target: T33, 4H2948-AA; conditions: mean of both orientations
T33 chain: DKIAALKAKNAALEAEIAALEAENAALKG

[34] = biological target: T34, 4H3666-AA; conditions: mean of both orientations
T34 chain: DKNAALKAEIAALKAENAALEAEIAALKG

[35] = biological target: T35, 4H1710-AA; conditions: mean of both orientations
T35 chain: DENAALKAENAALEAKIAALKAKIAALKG

[36] = biological target: T36, 4H2536-AA; conditions: mean of both orientations
T36 chain: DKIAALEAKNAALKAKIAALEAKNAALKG

[37] = biological target: T37, 4H2646-AA; conditions: mean of both orientations
T37 chain: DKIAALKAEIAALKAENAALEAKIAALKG

[38] = biological target: T38, 4H2758-AA; conditions: mean of both orientations
T38 chain: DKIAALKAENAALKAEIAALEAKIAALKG

[39] = biological target: T39, 4H327-AA; conditions: mean of both orientations
T39 chain: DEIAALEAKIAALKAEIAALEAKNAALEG

[40] = biological target: T40, 4H3409-AA; conditions: mean of both orientations
T40 chain: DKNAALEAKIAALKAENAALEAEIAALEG

[41] = biological target: T41, 4H3664-AA; conditions: mean of both orientations
T41 chain: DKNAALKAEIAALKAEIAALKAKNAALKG

[42] = biological target: T42, 4H369-AA; conditions: mean of both orientations
T42 chain: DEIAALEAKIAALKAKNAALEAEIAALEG

Binder: DEIAALEAENAALKAKNAALKAEIAALEG [4H249-AA]
interaction score [1]: -1.72

Binder: DEIAALEAENAALEAKIAALKAENAALEG [4H171-AA]
interaction score [2]: -1.73
interaction score [3]: -0.185
interaction score [4]: 1.08

Binder: DENAALEAKIAALKAKIAALKAEIAALEG [4H1385-AA]
interaction score [5]: 1.61

Binder: DENAALEAENAALKAKIAALKAEIAALEG [4H1257-AA]
interaction score [7]: 0.0702
interaction score [8]: -1.42
interaction score [9]: -1.1
interaction score [10]: -0.726
interaction score [11]: 1.54
interaction score [12]: -1.21

Binder: DENAALEAEIAALKAKNAALEAKIAALKG [4H1142-AA]
interaction score [13]: 0.123

Binder: DENAALEAEIAALEAKIAALEAKNAALKG [4H1064-AA]
interaction score [31]: -1.24
interaction score [32]: -1.48
interaction score [33]: -0.884
interaction score [34]: -1.27

Binder: DENAALEAKIAALKAEIAALEAKIAALKG [4H1350-AA]
interaction score [35]: 0.556
interaction score [36]: -0.188
interaction score [37]: -0.455
interaction score [38]: -0.48
interaction score [39]: 2.32
interaction score [40]: -1.11
interaction score [41]: 0.037
interaction score [42]: 0.227

Further lines, results first:

interaction score [6]: 1.83
Binder: DENAALEAENAALEAEIAALEAEIAALEG [4H1153-AA]

interaction score [14]: -1.61
interaction score [15]: -1.92
interaction score [16]: -1.33
interaction score [17]: -1.48
interaction score [18]: -1.55
Binder: DENAALKAKIAALEAKNAALEAKIAALEG [4H1845-AA]

interaction score [19]: 1.86
interaction score [20]: 1.65
interaction score [21]: 1.72
interaction score [22]: 2
interaction score [23]: 2.27
Binder: DKNAALKAEIAALEAENAALEAKIAALKG [4H3606-AA]

interaction score [24]: -1.79
interaction score [25]: 2.01
interaction score [26]: 2.06
interaction score [27]: 1.9
interaction score [28]: 2.18
interaction score [29]: 2.02
interaction score [30]: 2.05
Binder: DENAALEAKIAALKAKNAALKAEIAALEG [4H1401-AA]
